Source: publication PMC3558466, “An Enzyme-Catalyzed Multistep DNA Refolding Mechanism in Hairpin Telomere Formation” (PLoS Biology, 2013)
Where a chain is given by its changes, count along the chain named.

B1: Selenomethionine-labeled TelA (enzyme, Agrobacterium tumefaciens C58, UniProt Q7CWV1 1-442, looked up)
chain: MLAAKRKTKTPVLVERIDQFVGQIKEAMKSDDASRNRKIRDLWDAEVRYHFDNGRTEKTLELYIMKYRNALKAEFGPKSTPLAICNMKKLRERLNTYIARGDYPKTGVATSIVEKIERAEFNTAGRKPTVLLRIADFIAAMNGMDAKQDMQALWDAEIAIMNGRAQTTIISYITKYRNAIREAFGDDHPMLKIATGDAAMYDEARRVKMEKIANKHGALITFENYRQVLKICEDCLKSSDPLMIGIGLIGMTGRRPYEVFTQAEFSPAPYGKGVSKWSILFNGQAKTKQGEGTKFGITYEIPVLTRSETVLAAYKRLRESGQGKLWHGMSIDDFSSETRLLLRDTVFNLFEDVWPKEELPKPYGLRHLYAEVAYHNFAPPHVTKNSYFAAILGHNNNDLETSLSYMTYTLPEDRDNALARLKRTNERTLQQMATIAPVSRKG
modifications: selenomethionine-labeled (eleven selenium sites per TelA monomer located)
notes: Protelomerase TelA, Agrobacterium tumefaciens C58, gene locus Atu_2523, full-length 442 residues; model covers residues 102-421; Phosphotyrosine complex trapped with the nicked suicide substrate DNAc; used for SAD phasing; also called SeMet-TelA; source: E. coli methionine auxotroph strain B834(DE3), selenomethionine-labeled; not shown: His-tag (20 residues), N-terminal, kept
B2: TelA, protelomerase from Agrobacterium tumefaciens C58, wild type (enzyme, UniProt Q7CWV1 1-442, looked up)
chain: B1 chain
notes: Protelomerase TelA, Agrobacterium tumefaciens C58, gene locus Atu_2523, full-length 442 residues; residues 102-421 ordered in the crystal models; In 4E0P and 4E0Y Tyr405 is joined to the cleaved DNA by a phosphotyrosine bond; in 4E0G orthovanadate bridges Tyr405 and the DNA ends; also called telomere resolvase; wild-type TelA; source: E. coli BL21, pBAD promoter, purified (Ni-NTA, …)
B3: TelA R255A (enzyme)
chain: B1 chain with R255A
notes: source: E. coli BL21, pBAD promoter, purified (Ni-NTA, Heparin-Sepharose)
B4: TelA Y201A (enzyme)
chain: B1 chain with Y201A
notes: Crystallised with DNAb; source: E. coli BL21, pBAD promoter, purified (Ni-NTA, Heparin-Sepharose)
B5: TelA R205A (enzyme)
chain: B1 chain with R205A
notes: Crystallised with DNAb6; source: E. coli BL21, pBAD promoter, purified (Ni-NTA, Heparin-Sepharose)

Target: the molecule itself
Assay: crystal structure; TelA-DNA complexes (equal moles of protein monomer and DNA half-site), hanging drop vapor diffusion at 20°C, 5% PEG 4000, 10 mM Tris-HCl pH 7.4, 300 mM NaCl; one TelA per asymmetric unit, the dimer is generated by the crystallographic dyad; TelA is bound to DNA

Protein | stoichiometry N
B1 | 2
B2 | 2
B3 | 2
B4 | 2
B5 | 2
